Laboratory results published in PMC6346018 (Scientific Reports, 2019).

Experiments:
[1] = biological target: T1, light-activated and phosphorylated rhodopsin in rod outer segment membranes (P-ROS*) (UniProt P02699 1-348, phosphorylated by endogenous GRK1: mixture of species with up to seven phosphate groups per molecule, sites not stated); experiment: pull-down; 1.5 µg purified arrestin-1-mCherry and 15 µg (rhod-)opsin in native ROS membranes, 50 µl, 100 mM Hepes pH 7.0, 100 mM NaCl, 1 mM DTT, 0.1 mM EDTA; P-ROS* and ROS* illuminated 2.5 min (495 nm long-pass), others kept dark; centrifuged at 4 °C, pellet washed, mCherry fluorescence; conditions: one partner purified
T1 construct: rhodopsin, endogenous in native rod outer segment (ROS) disc membranes (isolated membranes, not whole cells); also called ROS-P*; source: rod outer segment disc membranes isolated from native source; phosphorylated by endogenously available GRK1; illuminated

[2] = biological target: T1, light-activated and phosphorylated …; experiment: pull-down; cleared bacterial lysate with arrestin-mCherry mixed with ROS-P* membranes; 10 mM Hepes pH 7.0, 1 mM DTT, 1 mM MgCl2, 0.1 mM EDTA, NaCl from 100 mM to 3.949 M; 37 °C, 5 min incubation, light activated 6 min; membranes pelleted, washed, mCherry fluorescence of the pellet; IC50 of NaCl for complex formation; conditions: partners not purified
[3] = biological target: T1, light-activated and phosphorylated …; experiment: as above; conditions: partners not purified; remark: listed apart in the source

T1 sequence (P02699 whole entry): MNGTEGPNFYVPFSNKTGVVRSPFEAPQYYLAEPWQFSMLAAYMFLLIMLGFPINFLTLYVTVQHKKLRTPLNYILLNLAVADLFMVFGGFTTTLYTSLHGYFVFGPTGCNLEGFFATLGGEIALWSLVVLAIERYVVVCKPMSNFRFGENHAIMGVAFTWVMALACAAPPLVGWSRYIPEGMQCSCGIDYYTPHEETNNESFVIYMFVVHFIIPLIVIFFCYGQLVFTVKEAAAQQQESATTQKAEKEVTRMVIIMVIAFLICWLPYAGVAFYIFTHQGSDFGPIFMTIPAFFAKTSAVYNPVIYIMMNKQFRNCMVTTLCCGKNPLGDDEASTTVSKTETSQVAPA

Binder | activity level relative to WT [1] | IC50 of NaCl for complex formation [2] | IC50 of NaCl relative to WT [3]
arrestin-1-mCherry-Strep-tag double mutant T304A + F375A, HEK293-expressed and purified (natural protein, bovine, UniProt P08168 1-404, looked up, arrestin-1 (visual arrestin), bovine, UniProt P08168; also called T304A + F375A double mutant; source: HEK293, transiently transfected (pcDNA3.1), one-step purified (Strep-Tactin); not shown: mCherry, C-terminal, kept) MKANKPAPNHVIFKKISRDKSVTIYLGKRDYIDHVERVEPVDGVVLVDPELVKGKRVYVSLTCAFRYGQEDIDVMGLSFRRDLYFSQVQVFPPVGASGATTRLQESLIKKLGANTYPFLLTFPDYLPCSVMLQPAPQDVGKSCGVDFEIKAFATHSTDVEEDKIPKKSSVRLLIRKVQHAPRDMGPQPRAEASWQFFMSDKPLRLAVSLSKEIYYHGEPIPVTVAVTNSTEKTVKKIKVLVEQVTNVVLYSSDYYIKTVAAEEAQEKVPPNSSLTKTLTLVPLLANNRERRGIALDGKIKHEDANLASSTIIKEGIDKTVMGILVSYQIKVKLTVSGLLGELTSSEVATEVPFRLMHPQPEDPDTAKESFQDENAVFEEFARQNLKDAGEYKEEKTDQEAAMDE | 106% |  | 
arrestin-1-mCherry double mutant T304A + F375A, bacterial lysate (natural protein, bovine, UniProt P08168 1-404, looked up, arrestin-1 (visual arrestin), bovine, UniProt P08168; not shown: mCherry, C-terminal, kept) MKANKPAPNHVIFKKISRDKSVTIYLGKRDYIDHVERVEPVDGVVLVDPELVKGKRVYVSLTCAFRYGQEDIDVMGLSFRRDLYFSQVQVFPPVGASGATTRLQESLIKKLGANTYPFLLTFPDYLPCSVMLQPAPQDVGKSCGVDFEIKAFATHSTDVEEDKIPKKSSVRLLIRKVQHAPRDMGPQPRAEASWQFFMSDKPLRLAVSLSKEIYYHGEPIPVTVAVTNSTEKTVKKIKVLVEQVTNVVLYSSDYYIKTVAAEEAQEKVPPNSSLTKTLTLVPLLANNRERRGIALDGKIKHEDANLASSTIIKEGIDKTVMGILVSYQIKVKLTVSGLLGELTSSEVATEVPFRLMHPQPEDPDTAKESFQDENAVFEEFARQNLKDAGEYKEEKTDQEAAMDE |  | 1.51 M | 502%
